According to article PMC3991583 (Nature, 2014):
Where two headings read alike, the source gives them in different places. One block for each binder: values may come before it.

Columns and labels:
Assay in all cases: crystal structure
[1] = molecular target: T1, AddA subunit of the nuclease-dead AddAB mutant (AddA D1172A) (UniProt P23478 1-1232, D1172A)
T1 sequence: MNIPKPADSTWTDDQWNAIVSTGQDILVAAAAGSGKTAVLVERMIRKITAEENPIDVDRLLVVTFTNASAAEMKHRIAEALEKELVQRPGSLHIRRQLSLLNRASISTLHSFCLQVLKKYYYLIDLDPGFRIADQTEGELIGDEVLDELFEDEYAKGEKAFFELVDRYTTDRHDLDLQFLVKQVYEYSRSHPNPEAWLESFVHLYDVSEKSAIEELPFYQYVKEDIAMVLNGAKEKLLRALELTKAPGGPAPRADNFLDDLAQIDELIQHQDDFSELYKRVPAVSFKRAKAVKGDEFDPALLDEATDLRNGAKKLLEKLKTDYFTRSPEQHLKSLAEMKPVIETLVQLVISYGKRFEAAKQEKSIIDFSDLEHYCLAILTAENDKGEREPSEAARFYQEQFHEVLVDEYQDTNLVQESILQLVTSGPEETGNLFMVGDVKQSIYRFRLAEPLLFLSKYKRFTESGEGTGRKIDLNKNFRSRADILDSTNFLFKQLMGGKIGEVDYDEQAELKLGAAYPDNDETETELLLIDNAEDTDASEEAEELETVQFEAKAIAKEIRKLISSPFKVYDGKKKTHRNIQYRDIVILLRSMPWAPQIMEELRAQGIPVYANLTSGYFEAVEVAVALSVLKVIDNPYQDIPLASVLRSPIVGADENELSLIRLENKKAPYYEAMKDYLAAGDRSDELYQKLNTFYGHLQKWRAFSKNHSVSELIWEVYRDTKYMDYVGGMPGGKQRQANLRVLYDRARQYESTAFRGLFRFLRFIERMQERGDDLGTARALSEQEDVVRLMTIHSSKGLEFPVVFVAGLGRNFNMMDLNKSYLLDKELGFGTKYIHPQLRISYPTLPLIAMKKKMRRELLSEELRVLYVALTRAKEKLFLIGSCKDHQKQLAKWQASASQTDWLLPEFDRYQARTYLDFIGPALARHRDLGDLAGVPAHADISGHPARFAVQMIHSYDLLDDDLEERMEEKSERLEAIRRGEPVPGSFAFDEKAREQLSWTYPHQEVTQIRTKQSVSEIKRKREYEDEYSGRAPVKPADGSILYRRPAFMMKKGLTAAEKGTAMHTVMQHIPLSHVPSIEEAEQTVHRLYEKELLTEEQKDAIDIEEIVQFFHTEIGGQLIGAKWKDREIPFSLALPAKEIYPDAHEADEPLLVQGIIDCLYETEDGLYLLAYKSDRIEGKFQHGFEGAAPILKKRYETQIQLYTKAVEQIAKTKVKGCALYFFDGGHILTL

[2] = molecular target: T2, AddA (nuclease-dead);AddB (nuclease-dead) (Bacillus subtilis?;Bacillus subtilis?, UniProt P23478;P23477 1-1232;1-1166, D1172A|D961A)
[3] = molecular target: T2, AddA (nuclease-dead);AddB …; remark: listed apart in the source

binding result [1]: binds
B1: AddB subunit of the nuclease-dead AddAB mutant (AddB D961A) (enzyme)
chain: MGAEFLVGRSGSGKTKLIINSIQDELRRAPFGKPIIFLVPDQMTFLMEYELAKTPDMGGMIRAQVFSFSRLAWRVLQHTGGMSRPFLTSTGVQMLLRKLIEEHKQEFKVYQKASDKSGFTAQVERMLTEFKRYCLEPEDIRRMAESGTASEYRGERVLSEKLHDLSILYQQMEKSLADQYLHSEDYLTLLAEHIPLAEDIKGAHIYVDGFYQFTPQEFRVLEQLMVHAEHITFSLTADKPSYEREPHELELFRMTGKTYYRLHQKAKELNLDITYKELSGTERHTKTPELAHLEAQYEARPAIPYAEKQEALTVMQAANRRAELEGIAREIHALVREKGYRYKDVAILARQPEDYKDMVKEVFADYEIPYFIDGKASMLNHPLIEFIRSSLDVLKGNWRYEAVFRCVKTELLFPLNEPKAKVREQVDQLENYCIAYGIKGDRWTKGDRFQYRRFVSLDDDFAQTDQEIEMENMLNDTRDWIVPPLFQLQKRMKKAKTVQEKAEALYRYLEETDVPLKLDQERQRAEDDGRIIEAQQHQQAWDAVIQLLEEFVEMMGDDEISLDLFQQMIEAGAESLTFSLIPPALDQVFVGNMDLSRMYGTSCTFVLGANDGVLPARPDENGVLSDDDREWLKTIGVELSSGGRERLLDEHFLIYMAFSSPSDRLYVSYPIADAEGKTLLPSMIVKRLEELFPHHKERLLTNEPEQVSDEEQLMYVVNKSVAQSFTASQLRLWTREYDISDVWWSTYNVLMSEQDRLQSKKLFSSLFFRNEVKQLERSVSRQLYGERIQGSVSRMETFNACPFSHFASHGLHLKERQFFKLEAPDIGQLFHSSLKLISDRLREQKLDWRDLTKEQCELFSYDAVERLAPKLQKEILLSSNRHYYVKEKLQKIVTRVSGILSEHAKASGFVPIGLELGFGGKGPLPPLTFQLKNGCTMELVGRIDRVDKAESSKGLLLRIVAYKSSDKGLDLAEVYYGLALQMLTYLDLSITHSADWLGMRATPAGVLYFHIHDPMIQSNLPLGLDEIEQEIFKKFKMKGLLLGDQEVVRLMDTTLQEGRSNIINAGLKKDGSLRSDSAAVGEKEFDLLTKHVRRTFQEAGEQITDGRVSIEPYKMKNKTPCTYCAFKSVCQFDESLEENEYRPLKAEKDKTILEWIKKEADGNEHS

B2: oligo 023 (Chi, 6 T spacer) (structured_DNA)
DNA: TTTTTTTCTAATGCGAGCACTGCTATTCCCTAGCAGTGCTCGCATTAGATTTTGTTTTTTAGCGG
binding result [2]: binds

B3: oligo 027 (Chi, 7 T spacer, TTTT 3' extension) (structured_DNA)
DNA: TTTTTTTCTAATGCGAGCACTGCTATTCCCTAGCAGTGCTCGCATTAGATTTTGTTTTTTTAGCGGTTTT
binding result [3]: binds
